From PMC12234153 come the findings set out here.

This test deals with STAT3 (UniProt P42227). As to the kind of experiment: anti-FLAG co-IP, anti-HA blot. As to conditions: reference: wild type SMAD2-FLAG; sites S255.

As to SMAD2 (from UniProt Q15796) S255A, the “binding against the reference” value is recorded as “weaker”.
